In patent publication US20230212268A1 (UNM RAINFOREST INNOVATIONS, published 2023):
Several values for one entry are separate records, joined by “and”; a condition that tells them apart may be missing. Equal values may be shown once.

Assays:
[1] = biological target: T1, recombinant EBOV glycoprotein (EBOV (Zaire ebolavirus), UniProt Q05320 33-650)
T1 sequence: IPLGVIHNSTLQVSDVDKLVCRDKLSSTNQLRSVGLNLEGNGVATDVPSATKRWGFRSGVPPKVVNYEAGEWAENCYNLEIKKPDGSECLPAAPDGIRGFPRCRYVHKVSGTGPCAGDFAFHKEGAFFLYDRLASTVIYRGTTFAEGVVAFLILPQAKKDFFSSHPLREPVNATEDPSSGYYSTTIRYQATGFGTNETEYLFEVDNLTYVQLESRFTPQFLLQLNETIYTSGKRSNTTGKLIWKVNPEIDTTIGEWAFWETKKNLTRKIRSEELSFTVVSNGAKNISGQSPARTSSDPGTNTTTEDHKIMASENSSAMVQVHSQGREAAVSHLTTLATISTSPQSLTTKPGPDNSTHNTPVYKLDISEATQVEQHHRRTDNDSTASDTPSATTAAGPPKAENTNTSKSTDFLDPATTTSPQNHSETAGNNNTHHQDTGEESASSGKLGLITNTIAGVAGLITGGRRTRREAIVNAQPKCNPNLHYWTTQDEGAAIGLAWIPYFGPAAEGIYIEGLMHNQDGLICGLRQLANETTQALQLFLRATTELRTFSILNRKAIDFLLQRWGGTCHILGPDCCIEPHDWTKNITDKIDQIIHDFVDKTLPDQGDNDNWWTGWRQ

[2] = biological target: T2, recombinant MARV glycoprotein (MARV (marburgvirus, Ravn), UniProt Q1PDC7 19-648); test: ELISA dose response, GP coated
T2 sequence: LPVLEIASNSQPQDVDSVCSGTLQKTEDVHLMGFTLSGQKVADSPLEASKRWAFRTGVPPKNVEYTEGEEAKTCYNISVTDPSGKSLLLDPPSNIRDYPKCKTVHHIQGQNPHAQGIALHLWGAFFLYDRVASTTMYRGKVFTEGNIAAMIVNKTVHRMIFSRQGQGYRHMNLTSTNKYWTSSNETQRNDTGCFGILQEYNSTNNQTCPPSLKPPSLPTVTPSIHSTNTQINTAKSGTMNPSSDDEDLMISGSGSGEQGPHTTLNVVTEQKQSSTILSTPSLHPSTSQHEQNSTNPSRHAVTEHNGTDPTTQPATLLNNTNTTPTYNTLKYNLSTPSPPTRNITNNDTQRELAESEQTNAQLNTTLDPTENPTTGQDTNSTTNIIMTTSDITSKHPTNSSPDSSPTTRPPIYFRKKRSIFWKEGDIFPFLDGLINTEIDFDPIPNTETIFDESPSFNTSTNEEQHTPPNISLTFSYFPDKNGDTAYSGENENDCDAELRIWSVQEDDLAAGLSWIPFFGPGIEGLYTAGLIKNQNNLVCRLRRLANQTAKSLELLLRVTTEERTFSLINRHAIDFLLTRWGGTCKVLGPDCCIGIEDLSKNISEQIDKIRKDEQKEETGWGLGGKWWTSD

[3] = biological target: T1, recombinant EBOV glycoprotein; test: maximal binding from ELISA dose-response fit
[4] = biological target: T3, recombinant SUDV glycoprotein (SUDV (Sudan ebolavirus), UniProt Q7T9D9 33-650); test: maximal binding from ELISA dose-response fit
T3 sequence: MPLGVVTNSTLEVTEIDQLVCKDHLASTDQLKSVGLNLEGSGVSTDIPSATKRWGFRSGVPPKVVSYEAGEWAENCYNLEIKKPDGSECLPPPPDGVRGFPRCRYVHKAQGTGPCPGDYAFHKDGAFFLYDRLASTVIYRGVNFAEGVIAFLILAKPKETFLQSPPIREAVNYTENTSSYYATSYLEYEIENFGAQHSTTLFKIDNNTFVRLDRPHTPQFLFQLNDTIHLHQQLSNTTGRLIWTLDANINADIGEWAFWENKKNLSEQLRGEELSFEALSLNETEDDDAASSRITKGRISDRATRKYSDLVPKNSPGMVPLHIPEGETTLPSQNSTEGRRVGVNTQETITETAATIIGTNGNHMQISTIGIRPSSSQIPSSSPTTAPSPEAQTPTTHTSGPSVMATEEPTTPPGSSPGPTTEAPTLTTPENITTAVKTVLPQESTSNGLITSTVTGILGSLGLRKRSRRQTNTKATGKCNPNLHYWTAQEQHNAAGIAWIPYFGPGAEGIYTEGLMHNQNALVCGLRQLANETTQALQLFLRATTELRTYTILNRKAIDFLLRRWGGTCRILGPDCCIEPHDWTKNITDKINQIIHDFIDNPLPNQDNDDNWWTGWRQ

[5] = biological target: T4, recombinant TAFV glycoprotein (TAFV (Tai Forest virus), UniProt Q66810 33-650); test: maximal binding from ELISA dose-response fit
T4 sequence: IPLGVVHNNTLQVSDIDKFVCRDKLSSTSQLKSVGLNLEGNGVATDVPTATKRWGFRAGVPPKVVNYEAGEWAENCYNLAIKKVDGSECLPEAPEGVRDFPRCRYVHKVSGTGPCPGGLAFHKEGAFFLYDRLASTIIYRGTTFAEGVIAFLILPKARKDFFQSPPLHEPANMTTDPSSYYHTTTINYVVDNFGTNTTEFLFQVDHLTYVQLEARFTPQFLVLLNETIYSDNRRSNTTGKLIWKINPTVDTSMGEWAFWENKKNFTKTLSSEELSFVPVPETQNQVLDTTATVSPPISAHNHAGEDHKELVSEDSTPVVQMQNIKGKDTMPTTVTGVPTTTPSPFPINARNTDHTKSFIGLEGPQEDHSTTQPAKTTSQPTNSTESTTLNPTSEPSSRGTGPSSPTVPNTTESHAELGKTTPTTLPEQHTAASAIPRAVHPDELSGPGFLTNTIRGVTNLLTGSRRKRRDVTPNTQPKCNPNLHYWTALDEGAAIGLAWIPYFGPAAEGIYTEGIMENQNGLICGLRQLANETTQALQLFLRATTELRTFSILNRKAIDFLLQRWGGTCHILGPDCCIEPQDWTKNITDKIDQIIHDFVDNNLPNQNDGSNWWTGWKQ

[6] = biological target: T2, recombinant MARV glycoprotein; test: maximal binding from ELISA dose-response fit

B1: EbovGPscFv4-2 (scFv)
scFv: MAWSHPQFEKTGSGGAELVKSGASVKLSCTASGFNIKDDYMHWVKQRPEQGLEWIGWIDPENGDTEYASKFQGKATITADTSSNTAYLQLSSLTSEDTAVYYCTTYYYGSAWFAYWGQGTLVTVSAGGGGSGGGGSGGGGSGGGGSASLSVSVGETVTITCRASGNIHNYLAWYQQKQGKSPQLLVYNAKTLADGVPSRFSGSGSGTQYSLKINNLQPEDFGSYYCQHFWSTPYTFGGGTKLEIKRADAAPTVSIFPPSSEQLTSGGASVVCFLNNFTHCQELQQDECS
**Q.** What does the source list for B1?
**A.** EC50 [1]: 4 µg/mL; EC50 [2]: 4.51 µg/mL and < 9 µg/mL; Bmax signal [3]: 350000 relative absorbance units; Bmax signal [4]: 280000 relative absorbance units; Bmax signal [5]: 280000 relative absorbance units; Bmax signal [6]: 380000 relative absorbance units
